Measured values reported in PMC10507018, “Structure of human drug transporters OATP1B1 and OATP1B3” (Nature Communications, 2023).

Experiments:
[1] = target: T1, Human OATP1B1 (organic anion transporting polypeptide 1B1) (human, UniProt Q9Y6L6, N-glycosylation sites N134, N516); test: cryo-EM structure; OATP1B1 in lipid nanodiscs (MSP1D1, brain polar lipids with cholesterol), premixed with 1:1.75 molar excess Fab18, SEC in HBS (25 mM HEPES pH 7.4, 150 mM NaCl), with 0.065 mM E1S; settings: both partners purified
T1 construct: wild-type human OATP1B1, gene codon-optimised for human cells (GenScript), in pcDNA5 with a cleavable C-terminal YFP-1D4 tag; The tag was removed with 3C protease after nanodisc reconstitution and before Fab18 was added for cryo-EM; also called SLCO1B1; not shown: YFP, C-terminal, cleaved; 1D4, C-terminal, cleaved
T1 sequence (Q9Y6L6 whole entry): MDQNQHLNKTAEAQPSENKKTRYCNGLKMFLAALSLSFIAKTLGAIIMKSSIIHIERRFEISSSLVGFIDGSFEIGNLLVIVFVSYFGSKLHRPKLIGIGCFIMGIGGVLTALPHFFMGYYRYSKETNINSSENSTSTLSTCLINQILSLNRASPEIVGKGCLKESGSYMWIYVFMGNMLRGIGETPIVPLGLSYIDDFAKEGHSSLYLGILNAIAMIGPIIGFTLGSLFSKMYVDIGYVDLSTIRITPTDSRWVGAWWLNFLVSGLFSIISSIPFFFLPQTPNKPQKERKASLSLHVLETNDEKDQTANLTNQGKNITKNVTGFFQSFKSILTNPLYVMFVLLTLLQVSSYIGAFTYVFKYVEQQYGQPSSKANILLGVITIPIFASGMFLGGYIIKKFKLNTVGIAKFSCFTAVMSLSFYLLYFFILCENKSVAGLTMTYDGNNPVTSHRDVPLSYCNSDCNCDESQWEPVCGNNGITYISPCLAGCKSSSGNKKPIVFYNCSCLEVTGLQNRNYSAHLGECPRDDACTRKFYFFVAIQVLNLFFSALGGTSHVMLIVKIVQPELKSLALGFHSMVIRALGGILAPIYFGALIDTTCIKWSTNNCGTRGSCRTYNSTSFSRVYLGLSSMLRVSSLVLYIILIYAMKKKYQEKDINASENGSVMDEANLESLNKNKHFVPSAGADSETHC

[2] = target: T2, Human OATP1B3 (organic anion transporting polypeptide 1B3) (human, UniProt Q9NPD5, N-glycosylation sites N134, N516); test: cryo-EM structure; OATP1B3 in lipid nanodiscs (MSP1D1, brain polar lipids with cholesterol), premixed with Fab19 at a molar ratio of 1:1, SEC in HBS (25 mM HEPES pH 7.4, 150 mM NaCl), with 0.05 mM atazanavir; settings: both partners purified
T2 construct: wild-type human OATP1B3, gene codon-optimised for human cells (GenScript), in pcDNA5 with a cleavable C-terminal YFP-1D4 tag; also called SLCO1B3; not shown: YFP, C-terminal, cleaved; 1D4, C-terminal, cleaved
T2 sequence (Q9NPD5 whole entry): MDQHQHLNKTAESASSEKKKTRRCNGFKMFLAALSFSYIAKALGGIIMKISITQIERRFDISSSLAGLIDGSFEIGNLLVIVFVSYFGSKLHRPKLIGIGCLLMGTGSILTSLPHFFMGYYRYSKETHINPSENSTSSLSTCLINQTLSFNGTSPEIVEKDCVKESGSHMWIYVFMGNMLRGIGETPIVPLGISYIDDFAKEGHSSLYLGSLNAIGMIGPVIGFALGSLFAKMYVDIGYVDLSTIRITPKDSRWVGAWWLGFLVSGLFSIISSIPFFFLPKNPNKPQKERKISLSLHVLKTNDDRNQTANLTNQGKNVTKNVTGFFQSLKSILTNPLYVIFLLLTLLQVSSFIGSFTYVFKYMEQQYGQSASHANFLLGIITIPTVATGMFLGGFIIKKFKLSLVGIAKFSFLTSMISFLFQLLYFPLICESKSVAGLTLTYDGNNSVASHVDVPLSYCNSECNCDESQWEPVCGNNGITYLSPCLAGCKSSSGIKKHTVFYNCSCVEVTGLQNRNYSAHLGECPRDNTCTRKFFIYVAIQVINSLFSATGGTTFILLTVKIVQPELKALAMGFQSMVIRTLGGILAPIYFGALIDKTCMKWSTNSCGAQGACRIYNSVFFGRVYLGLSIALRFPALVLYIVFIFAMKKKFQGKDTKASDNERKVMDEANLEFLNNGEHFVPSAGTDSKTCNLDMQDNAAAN

B1: Fab18 (Fab, V domains shown)
VH: EVQLVESGGGLVQPGGSLRLSCAASGFNFSSSSIHWVRQAPGKGLEWVASISSSSGSTSYADSVKGRFTISADTSKNTAYLQMNSLRAEDTAVYYCARYGWGGPWYYWLRDSRSGIDYWGQGTLVTVSS
VL: DIQMTQSPSSLSASVGDRVTITCRASQSVSSAVAWYQQKPGKAPKLLIYSASSLYSGVPSRFSGSRSGTDFTLTISSLQPEDFATYYCQQSSSSLITFGQGTKVEIK
notes: heavy chain (HC) of Fab18 in PDB 8PHW; selected by phage display from synthetic Fab library E against OATP1B3; light chain (LC) of Fab18 in PDB 8PHW; also called synthetic Fab fragment Fab18; source: E. coli C43 (Pro+), pRH2.2, purified (Protein L, Resource S)
B1: binds [1].

B2: Fab19 (Fab, V domains shown)
VH: EVQLVESGGGLVQPGGSLRLSCAASGFNFSSSSIHWVRQAPGKGLEWVASISSSSGSTSYADSVKGRFTISADTSKNTAYLQMNSLRAEDTAVYYCARYYIKRWWLMSWEDYSMGLDYWGQGTLVTVSS
VL: DIQMTQSPSSLSASVGDRVTITCRASQSVSSAVAWYQQKPGKAPKLLIYSASSLYSGVPSRFSGSRSGTDFTLTISSLQPEDFATYYCQQSSSSLITFGQGTKVEIK
notes: heavy chain (HC) of Fab19 in PDB 8PG0; selected by phage display from synthetic Fab library E against OATP1B3; light chain (LC) of Fab19 in PDB 8PG0; also called synthetic Fab fragment Fab19; source: E. coli C43 (Pro+), pRH2.2, purified (Protein L, Resource S)
B2: binds [2].
